Results published in the RNAGym collection of RNA variant scans (doi:10.1073/pnas.2313332121).
Variants at the floor of the assay were thinned out.

B1: TPR 5TU (parent)
chain: GGAUCUUCUCGAUCUAACAAAAAAGACAAAUCUGCCACAAAGCUUGAGAGCAUCUUCGGAUGCAGAGGCGGCAGCCUUCGGUGGCGCGAUAGCGCCAACGUUCUCAACUAUGACACGCAAAACGCGUGCUCCGUUGAAUGGAGUUUAUCAUG

Variants of: B1
Experiment: polymerase ribozyme fitness, log enrichment relative to wild type (log ratio); higher = more active; in vitro selection for triplet polymerase activity
Method in brief: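 One round of in vitro selection, in triplicate, was applied to PCR-built, transcribed mutant libraries of each subunit of a heterodimeric triplet polymerase ribozyme. The steps were annealing with a biotinylated primer, partner subunit and triplets, incubation frozen at −7 °C, gel excision of extended constructs, streptavidin-bead capture and RT-PCR. Fitness is the logarithm, base 2, of genotype enrichment over wild-type enrichment from inverse-variance-weighted replicate averages of Illumina-sequenced inputs and outputs, keeping genotypes with ≥10 input reads and ≥1 read per output.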

Variant	polymerase ribozyme fitness (log ratio)
C38U G81A C99G A120U G124C	-3.02
C14A A21U G59U G133C	-3.06
C32U A41C G58U A60C C75G C96U C114A	≤ -4.2
U6A G86C	-2.98
A52G A98U	-2.02
A30U G50C C96U U104C G136U	≤ -4.2
G80A A119U	-0.405
A17U C18U A20G C93U A115G	-4.19
G46A C51G U56A G88U G141A	≤ -4.2
G68A A106C A120G A138C	≤ -4.2
G67C G86C C96A G112U A113U G126U	≤ -4.2
U55A G141A	-0.587
C27A A66C A73C G92U U148C	≤ -4.2
A20C U82A A150G	-0.662
G50A G68C U77C U82G G92C	≤ -4.2
G100U C131U	≤ -4.2
A3U U4G U55A A119C	-1.29
A40U G50C C85U	-2.29
U7G U53A U56G G84U U148C	≤ -4.2
C32U G62A C76G G84U C116U G140A C149U	≤ -4.2
U56A G58U A115G	-0.802
G83C C116A A121C	0.158
A22U U55A	-0.43
A3C C14G A52C C93U G141U	-4.16

Variant	polymerase ribozyme fitness (log ratio)
A26G U44A C54U C87A C99U U111G G143U	≤ -4.2
U7G A23C A28U C38G A121G	≤ -4.2
A52U A73U A89C G92C C129G A137U	≤ -4.2
U6A G88C C116U	≤ -4.2
C10U U55A	-2.91
C87A A91G G152U	-4.13
C85A U109G C118U	-1.54
A12G A29U U44C G50C A91C C93G G94C C116U U144A	≤ -4.2
C36A C87G A107C	≤ -4.2
C93A C118U C125A A142G	≤ -4.2
C51U G65C C87U	≤ -4.2
A20U A41U G48A A49G C96G A106G A107G U135G	≤ -4.2
A19U G94A	-1
G48A C72G	≤ -4.2
C32A U33G A66G G83A U102G C118G G124C G141C G143U	≤ -4.2
C14A C54U	-2.07
A12G C96A U134C A138G G141C	-3.97
G34U A37U U55A G136U	≤ -4.2
C85U G128A	-3.29
A28G A52C U53C C57U C87A G141A	≤ -4.2
C14U G50U	-1.15
A52U U56A A66U C93A C123G G143A U146A	≤ -4.2
C36U U145A G152A	-3
G59U C75U C76U C93G A115U	≤ -4.2

Variant	polymerase ribozyme fitness (log ratio)
G74A A91U G117U G141U	≤ -4.2
A30C C76A G83C	≤ -4.2
A24C A29C A37U G59A U61G C87A C103G G117U	≤ -4.2
A60G U104G G136U U144C	-3.29
A52G G86U C96G U144C U151C	≤ -4.2
C5G U53G C57A G80C A91U U144C	≤ -4.2
A21C G34U U61A C87U U134G U135A G141C	≤ -4.2
C8U G81A G88A	≤ -4.2
U7C A24U C96U A107G C125G U144C U151C	-4.07
U15A G48C G83U	-2.41
A29U U134A	≤ -4.2
C14G U127G	-4.18
A3U U4A A16U U31A C85U G88A C125U U146G	≤ -4.2
A60U C85U G88U C99U	≤ -4.2
G58A A73U U101G U102A U109A	≤ -4.2
A40U C85G	-1.32
A20G A91U	≤ -4.2
A3U A20U A41G A49G A64U C108G	≤ -4.2
G81C G117A A119C	0.184
A16G U82A U145G	-1.4
U13G A37U C43U A52C A73C G84C U109C G140A	≤ -4.2
G117U U145G	-3.12
C5G A12C A40U G58C G83U C118G	-3.96
G42U U53C C95G	≤ -4.2

Variant	polymerase ribozyme fitness (log ratio)
A20U C57A	-1.36
U53A G80A U109A C123U A142G	-3.11
C54U C85U C129U	-0.134
C8G A30G G48A C69G G86A G143U	-4.06
U6C A60U G86A	-3.49
A21G A60G U78C A89U G92A G124U A137G G143U	≤ -4.2
C35G U55G G67A G92U	≤ -4.2
C10A G67C C93G C99G A137U U146A	≤ -4.2
U102G G124A	-2.85
C8G C35U C85G G88U U134A	≤ -4.2
G58C C72U A150U	0.398
C38A U56G C93G C95A	≤ -4.2
A40C U44A A60G C69U C72U G83C U104A U127G G152A	≤ -4.2
A19U G46U A89C	-2.83
G11U G48C C79A C93G A119G G141U	≤ -4.2
A41G G48A C87A U148C	≤ -4.2
C10G U53A C57U G86C A106G C108G A113G U127G	≤ -4.2
C57G U82A A98G	-3.69
A26U G46U	-3.87
A20U A24G A29C C38G G80C A89G C105U C116G	≤ -4.2
C18G A24U U55A C69U G74A	-2.16
C54A U56A C93U A120G G126U	-2.38
G42C G48A C75G C96U U104A	≤ -4.2
A52G G94C	-1.32

Variant	polymerase ribozyme fitness (log ratio)
G62A C85A A121U U134C A137G	-3.02
C57U C76A C93U C116A U151G	≤ -4.2
A91C C95U C103G C116G	≤ -4.2
A20U U45A C118A	-3.82
C10U G84A	-3.34
U31G G65U	≤ -4.2
U56A G92A U148G	≤ -4.2
C32U G59C A60C C63G C93A C99U A115G	≤ -4.2
U102G G124C G133A A137G G143U	≤ -4.2
A52U C96U U101G U145G	-4.1
G48C U55A A122U	0.121
A23U C38A U45G G50C U56A C93G G117A	≤ -4.2
A91G U144G	-2.02
A16U A39C A49C C96U C125U	≤ -4.2
A26U G59A G83A C87G C93G A97G U104C U139C	≤ -4.2
U44G G65A A66C A91G	≤ -4.2
A28U A49G C54A C93U U144C	≤ -4.2
A16G A37U A60U G71C G84A C116A G124C U146G	≤ -4.2
C5A C79A G88A A106C	≤ -4.2
C51A A52C A73G G83U U127C	≤ -4.2
C8G U55G C72U G84U G136A	≤ -4.2
A26C C76A	-3.75
C8U C123G	-3.42
C8U A22U C27U G70A C85A A89U G92U	≤ -4.2

Variant	polymerase ribozyme fitness (log ratio)
A39U C96G	-2.11
U7G C54U G92U	-2.21
A30C G50C A66G G128U	≤ -4.2
A12G C14G C18U U31A U56G U101A	-2.32
G70A G84A C87G A113C A120G	≤ -4.2
C54G C57U C75A A97U G141C U145G	≤ -4.2
C75U C93U	-0.656
A41U A73U	-1.65
C10A A23U C35G C95G G128A	≤ -4.2
C76U C99A	-1.37
C27A U33C C85A A106G U144A U151C	≤ -4.2
G62A U82C C95A U101C U148A	≤ -4.2
A16U G58U C69U U78G G80C C96A G141U	≤ -4.2
C35G U55G U61A C79G C93G A107G	≤ -4.2
G50C C54U G86A C108U	≤ -4.2
A24C A29C U55G G94C	≤ -4.2
C14U A23C	≤ -4.2
A39C U130G	≤ -4.2
C35U A52C G81A G86U C95A	≤ -4.2
A20C A39C C79G A106G G124U	≤ -4.2
U82G A137C	-2.98
A29U A41C A52C C87U U102C G136A G143C U146A	≤ -4.2
U53A C96U C103U	-1.14
C10U U55A G84U	-4.1

Variant	polymerase ribozyme fitness (log ratio)
U55A A115U	-1.89
A91C C108G A120U	≤ -4.2
A16C A110G	-3.67
U6C C14U U44A G68U G92U A98G C99G	≤ -4.2
A39G A52C C54G C85U C125U G126U A147C	≤ -4.2
U6G C87U	-0.579
U31G G83U G126C	-0.857
A26U A37C C95G A107C G152U	≤ -4.2
A3U G70A A89C U139C U144A	≤ -4.2
C38U A40C G80U C95U	-1.06
C108A G143U U144G	≤ -4.2
A30G G74U C95A U148G	≤ -4.2
G67C G92A C96U C118U	≤ -4.2
A19C A20U U61C C76A U82C A91U U130G U146C	≤ -4.2
G92A C108U	≤ -4.2
A16G G50A A142C	-3.93
A22C G50A U55G U77C G94A	-4.04
A26U A30U A37C U61A A66C G67C C69U C87A C105A C125U	≤ -4.2
U15A C35U U55A C96G A107U U135C	≤ -4.2
C95U	-0.031
C118G A119U G141U	-0.349
C57A A150U	1.72
U90A C95U A121U U127A	≤ -4.2
